B1: PRT-120 (protein)
chain: MRNATEAYNEETPKQITSVWTKGVTPLTPEDFRYNNEDVFHAPYLANQGWYDITKTFNGKDNLLCGAATAGNMLHWWFDQNKEEIEAYLKKHPEKQKIIFNNQELFDLKAAIDTKDSQTNSQLFNYFKDKAFPNLSARQLGVMPDLVLDMFINGYYLNVNKTQSTDVNRPYQDKDKRGGIFDAVFTRGDQTKLLTERHDLKNKGLNDISTLIKQELTEGKALALSHTYANVSINHVINLWGADFDAEGNLEAIYVTDSDSNESIGMKKYFVGINAAGKVAISAKKIEDENIGAQVLGLFTLSSGKDIWQQLS
B2: PRT-122 (protein)
chain: MRNATEAYAKEVPKKITSVWTKGVTPLTPEQFIYQNEDVFHAPYLAHQGWYDITKTFNGKDNLLCGAATAGNMLHWWFDQNKEEIERYLSKHPEKQKIIFNNQELFDLKAAIDTKDSQTNSALFNYFRDKAFPNLSARQLGVMPDLVLDMFINGYYLNVTKTQSTDVNRPYQTKDKRGGIFDAVFTRGDQTKLLTERHDLKNKTLEEISQLIKQELTEGKALGLSHTYANVRISHVINLWGADFDAEGNLEAIYVTDSDSNASIGMKKYFVGVNASGKVAISAKKIEDDNIGAQVLGLFTLSSGKDIWEKLS
B3: PRT-119 (protein)
chain: MRNATEAYAKETPKQITSVWTKGVTPPTPEQFRYNNEDVFHAPYVANQGWYDITKTFDGKDNLLCGAATAGNMLHWWFDQNKTEIEKYLSKHPEKQKIIFNNQELFDLKAAIDTKDSQTNSQLFNYFRDKAFPNLSARQLGVMPDLVLDMFINGYYLNVTKTQSTDVNRPYQDKDKRGGIFDAVFTRGDQTKLLTARHDLGNKSLNEISQLIKQELQEGKALALSHTYANVRISHVINLWGADFDAEGNLEAIYVTDSDSNASIGMKKYYVGVNSAGKVAISAKKIEGENIGAQVLGLFTLSSGKDIWQKLS
B4: PRT-11 (protein)
chain: MANQEIRYSEETPYHVTSVWTKGVTPPANFTQGEDVFHAPYVANQGWYDITKTFNGKDDLLCGAATAGNMLHWWFDQNKDQIEKYLKEHPEKQKINFNGEQMFDVKEAIDTKDSQTDSKLFEYFKEKAFPYLSTKHLGVFPDHVIDMFINGYRLSLTNHGPTPVKEQSKDPRGGIFDAVFTRGDQSKLLTSRHDFKEKTLKEISDLIKKELSEGKALGLSHTYANVRINHVINLWGADFDSNGNLKAIYVTDSDSNASIGMKKYFVGVNSAGKVAISAKEIKEDNIGAQVLGLFTLSTGQDIWNQTN
B5: PRT-121 (protein)
chain: MRNATEAYNEDTPKQITSVWTKGVTPPTPEQFRKYNEDVLHAPYIANQGWYDITKTFNGKDDLLCGAATAGNMLHWWFDQNKTEIEAYLSKYPEKQKIIFNNQELFDLRAAIDTKDSQTNSALFNYFRDKAFPNLSARQLGVMPDLVLDMFINGYYLNVTKTQSTDVNRPYQTKDKRGGIFDAVFTRGDQTTLLTSRHDLKNKTLNEISDLIKQELTEGKALALSHTYANVSISHVINLWGADFNAEGNLEAIYVTDSDANASIGMKKYFVGVNAAGKVAISAKKIEGENIGAQVLGLFTLSTGKDIWEKLS
B6: PRT-10 (protein)
chain: MANQEIRYSEVTPYTVTSVWTKGVTPPANFTQGEDVFHAPYVANQGWYDITKTFNGKDDLLCGAATAGNMLHWWFDQNKEQIERYLKEHPEKQKINFNGEQMFDVKEAIDTKDSQLDSELFEYFKEKAFPYLSTKHLGVFPDHVIDMFINGYRLSLTNHGPTPVKEGSKDPRGGIFDAVFTRGDQSKLLTSRHDFKEKTLKEISDLIKKELTEGKALALSHTYANVRINHVINLWGADFDSEGNLEAIYVTDSDSNASIGMKKYFVGVNSAGKVAISAKEIEDDNIGAQVLGLFTLSTGQDIWNQTN
B7: PRT-124 (protein)
chain: MRNATEAYAKEVPHQITSVWTKGVTPLTPEQFRYNNEDVIHAPYLAHQGWYDITKTFDGKDNLLCGAATAGNMLHWWFDQNKTEIEAYLSKHPEKQKIIFNNQELFDLKAAIDTKDSQTNSQLFNYFRDKAFPNLSARQLGVMPDLVLDMFINGYYLNVFKTQSTDVNRPYQDKDKRGGIFDAVFTRGDQTTLLTARHDLKNKGLNDISTIIKQELTEGKALALSHTYANVSISHVINLWGADFNAEGNLEAIYVTDSDANASIGMKKYFVGVNAHGKVAISAKKIEGENIGAQVLGLFTLSSGKDIWQKLS
B8: PRT-127 (protein)
chain: MRNATEAYAKEVPHQITSVWTKGVTPLTPEQFRYNNEDVIHAPYLANQGWYDITKTFNGKDNLLCGAATAGNMLHWWFDQNKTEIEAYLKKHPEKQKIIFNNQELFDLKAAIDTKDSQTNSQLFNYFRDKAFPNLSARQLGVMPDLVLDMFINGYYLNVFKTQSTDVNRPYQDKDKRGGIFDAVFTRGDQTTLLTARHDLKNKGLNEISTLIKQELTEGKALALSHTYANVSISHVINLWGADFNAEGNLEAIYVTDSDSNASIGMKKYFVGVNAHGKVAISAKKIEGENIGAQVLGLFTLSSGKDIWQKLS
B9: PRT-125 (protein)
chain: MRNATEAYAKEVPHQITSVWTKGVTPLTPEQFRYNNEDVFHAPYLANQGWYDITKTFDGKDNLLCGAATAGNMLHWWFDQNKTEIEAYLSKHPEKQKIIFNNQELFDLKAAIDTKDSQTNSQLFNYFRDKAFPNLSARQLGVMPDLVLDMFINGYYLNVFKTQSTDVNRPYQDKDKRGGIFDAVFTRGDQTKLLTARHDLKNKGLNDISTLIKQELTEGKALALSHTYANVSISHVINLWGADFNAEGNLEAIYVTDSDANASIGMKKYFVGVNAHGHVAISAKKIEGENIGAQVLGLFTLSSGKDIWQKLS
B10: PRT-128 (protein)
chain: MRNATEAYAKEVPKQITSVWTKGVTPPTPEQFRYNNEDVIHAPYLANQGWYDITKTFNGKDNLLCGAATAGNMLHWWFDQNKTEIEAYLSKHPEKQKIIFNNQELFDLKAAIDTKDSQTNSQLFNYFRDKAFPNLSARQLGVMPDLVLDMFINGYYLNVFKTQSTDVNRPYQDKDKRGGIFDAVFTRGDQTTLLTARHDLKNKTLNDISTLIKQELTEGKALALSHTYANVSISHVINLWGADFNAEGNLEAIYVTDSDANASIGMKKYFVGVNAHGKVAISAKKIEGENIGAQVLGLFTLSSGKDIWQKLS
B11: PRT-126 (protein)
chain: MRNATEAYAKEVPHQITSVWTKGVTPLTPEQFRYNNEDVIHAPYLANQGWYDITKTFDGKDNLLCGAATAGNMLHWWFDQNKTEIEAYLSKHPEKQKIIFNNQELFDLKAAIDTKDSQTNSQLFNYFRDKAFPNLSARQLGVMPDLVLDMFINGYYLNVFKTQSTDVNRPYQDKDKRGGIFDAVFTRGDQTTLLTARHDLKNKGLNDISDLIKQELTEGKALALSHTYANVSISHVINLWGADFNAEGNLEAIYVTDSDSNASIGMKKYFVGVNAAGHVAISAKKIEGENIGAQVLGLFTLSSGKDIWQKLS
B12: PRT-130 (protein)
chain: MRNATEAYAKEVPHQITSVWTKGVTPLTPEQFRYNNEDVIHAPYLAHQGWYDITKAFDGKDNLLCGAATAGNMLHWWFDQNKTEIEAYLSKHPEKQKIIFNNQELFDLKAAIDTKDSQTNSQLFNYFRDKAFPNLSARQLGVMPDLVLDMFINGYYLNVFKTQSTDVNRPYQDKDKRGGIFDAVFTRGDQTTLLTARHDLKNKGLNDISDIIKQELTEGRALALSHTYANVSISHVINLWGADFNAEGNLEAIYVTDSDSNASIGMKKYFVGINAAGHVAISAKKIEGENIGAQVLGLFTLSSGKDIWQKLS
B13: PRT-129 (protein)
chain: MRNATEAYAKEVPHQITSVWTKGVTPLTPEQFRYNNEDVFHAPYLANQGWYDITKAFDGKDNLLCGAATAGNMLHWWFDQNKTEIEAYLSKHPEKQKIIFNNQELFDLKAAIDTKDSQTNSQLFNYFRDKAFPNLSARQLGVMPDLVLDMFINGYYLNVFKTQSTDVNRPYQDKDKRGGIFDAVFTRGDQTKLLTARHDLKNKGLNDISTLIKQELTEGRALALSHTYANVSISHVINLWGADFNAEGNLEAIYVTDSDANASIGMKKYFVGINAHGHVAISAKKIEGENIGAQVLGLFTLSSGKDIWQKLS
B14: PRT-123 (protein)
chain: MRNATEAYNKESPHTITSVWTKGVTPPTPEDFRYNNEDVLHAPYVANQGWYDITKTFDGKDNLLCGAATAGNMLHWWFDQNKEEIERYLKKHPEKQKIIFNNQELFDVKAAIDTKDSQTNSKLFNYFRDKAFPNLSARQLGVMPDLVLDMFINGYYLNLGKTQSTDVNRPYQDKDKRGGIFDAVFTRGDQTTLLTARHDLKNKGLNEISDLIKQELTEGKALALSHTYANVRINHVINLWGADFDAEGNLIAIYVTDSDANASIGMKKYFVGVNANGKVAISAKKIEGDNIGAQVLGLFTLSTGQDIWQKLS

Target: pooled human IgG

Row | Protein | Enzyme Activity Endpoint Assay (purified): Fab'2 [ng/µL] | Enzyme Activity Endpoint Assay (purified): Fc [ng/µL] | Enzyme Activity Endpoint Assay (purified): IgG [ng/µL] | Enzyme Activity Endpoint Assay (purified): scIgG [ng/µL] | Enzyme Activity Endpoint Assay: Fab′2 [ng/µL] | Enzyme Activity Endpoint Assay: Fc [ng/µL] | Enzyme Activity Endpoint Assay: IgG [ng/µL] | Enzyme Activity Endpoint Assay: scIgG [ng/µL]
1 | B1 | 92 | 113 | 28 | 153 | – | – | – | –
2 | B2 | 565 | 194 | 138 | 0 | – | – | – | –
3 | B3 | 15 | 96 | 0 | 133 | – | – | – | –
4 | B4 | – | – | – | – | 40 | 100 | 13 | 0
5 | B5 | 447 | 174 | 0 | 0 | – | – | – | –
6 | B6 | – | – | – | – | 2 | 56 | 32 | 58
7 | B7 | 676 | 202 | 0 | 0 | – | – | – | –
8 | B8 | 523 | 140 | 0 | 0 | – | – | – | –
9 | B9 | 609 | 197 | 0 | 0 | – | – | – | –
10 | B10 | 560 | 151 | 0 | 60 | – | – | – | –
11 | B11 | 472 | 160 | 0 | 0 | – | – | – | –
12 | B12 | 592 | 192 | 0 | 0 | – | – | – | –
13 | B13 | 384 | 169 | 0 | 0 | – | – | – | –
14 | B14 | 468 | 187 | 0 | 0 | – | – | – | –
